Source: publication PMC9482650, “Quantitative fragmentomics allow affinity mapping of interactomes” (Nature Communications, 2022)

Experiments:
Test in all cases: holdup assay
Details in all cases: plain residues with an end cap or a label only (N-terminal biotin on a linker: (peg)3)
[1] = target: MAGI3_5, Q5TCQ9
[2] = target: T1, PDZD7_1, Q9H5P4
T1 sequence (Q9H5P4 81-178, limits assumed, looked up): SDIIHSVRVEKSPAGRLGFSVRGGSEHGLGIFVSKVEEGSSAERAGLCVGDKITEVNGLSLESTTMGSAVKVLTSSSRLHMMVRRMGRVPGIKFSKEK

[3] = target: T2, PDZD11, Q5EBL8
T2 sequence (Q5EBL8 42-139, limits assumed, looked up): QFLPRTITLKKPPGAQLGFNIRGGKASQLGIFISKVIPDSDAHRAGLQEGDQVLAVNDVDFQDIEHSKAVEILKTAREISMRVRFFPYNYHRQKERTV

[4] = target: T3, MPP5, Q8N3R9
T3 sequence (Q8N3R9 251-346, limits assumed, looked up): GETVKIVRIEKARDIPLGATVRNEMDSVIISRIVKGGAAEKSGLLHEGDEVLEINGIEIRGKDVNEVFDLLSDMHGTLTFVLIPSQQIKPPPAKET

[5] = target: T4, SHROOM4, Q9ULL8
T4 sequence (Q9ULL8 5-102, limits assumed, looked up): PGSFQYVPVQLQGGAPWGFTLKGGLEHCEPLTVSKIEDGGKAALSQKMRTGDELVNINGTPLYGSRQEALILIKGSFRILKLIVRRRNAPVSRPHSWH

[6] = target: T5, SIPA1L3, O60292
T5 sequence (O60292 961-1052, limits assumed, looked up): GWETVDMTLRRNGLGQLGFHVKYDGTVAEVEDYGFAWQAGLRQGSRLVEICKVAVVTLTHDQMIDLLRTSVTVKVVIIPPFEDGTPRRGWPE

[7] = target: T6, PDZD2_6, O15018
T6 sequence (O15018 2745-2839, limits assumed, looked up): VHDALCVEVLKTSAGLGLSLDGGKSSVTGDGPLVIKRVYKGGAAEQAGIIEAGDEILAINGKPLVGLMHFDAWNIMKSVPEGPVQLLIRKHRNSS

[8] = target: T7, PDZD2_5, O15018
T7 sequence (O15018 2617-2716, limits assumed, looked up): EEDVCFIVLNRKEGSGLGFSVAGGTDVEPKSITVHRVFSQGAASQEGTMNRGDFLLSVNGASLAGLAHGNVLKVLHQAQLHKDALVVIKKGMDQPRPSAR

[9] = target: MAGI3_4, Q5TCQ9
Sequence of MAGI3_4, Q5TCQ9 (Q5TCQ9 716-815): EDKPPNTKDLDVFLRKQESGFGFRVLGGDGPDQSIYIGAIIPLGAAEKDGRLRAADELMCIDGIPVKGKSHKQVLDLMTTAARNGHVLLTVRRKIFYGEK

[10] = target: T8, PDZD2_4, O15018
T8 sequence (O15018 723-823, limits assumed, looked up): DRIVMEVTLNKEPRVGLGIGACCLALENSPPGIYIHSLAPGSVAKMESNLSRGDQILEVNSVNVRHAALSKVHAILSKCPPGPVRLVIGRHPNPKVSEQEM

[11] = target: T9, USH1C_2, Q9Y6N9
T9 sequence (Q9Y6N9 206-303, limits assumed, looked up): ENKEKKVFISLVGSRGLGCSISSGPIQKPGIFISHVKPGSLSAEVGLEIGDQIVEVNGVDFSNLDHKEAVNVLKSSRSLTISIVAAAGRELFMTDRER

[12] = target: T10, SHANK2, Q9UPX8
T10 sequence (Q9UPX8 621-730, limits assumed, looked up): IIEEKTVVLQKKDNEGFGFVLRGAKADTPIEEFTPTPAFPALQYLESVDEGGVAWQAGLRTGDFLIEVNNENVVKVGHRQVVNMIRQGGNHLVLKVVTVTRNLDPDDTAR

[13] = target: T11, PARD6B, Q9BYG5
T11 sequence (Q9BYG5 152-260, limits assumed, looked up): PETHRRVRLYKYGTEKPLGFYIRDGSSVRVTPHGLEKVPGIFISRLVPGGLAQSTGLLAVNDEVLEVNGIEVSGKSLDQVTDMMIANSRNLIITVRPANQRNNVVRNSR

[14] = target: T12, PDZD2_1, O15018
T12 sequence (O15018 80-192, limits assumed, looked up): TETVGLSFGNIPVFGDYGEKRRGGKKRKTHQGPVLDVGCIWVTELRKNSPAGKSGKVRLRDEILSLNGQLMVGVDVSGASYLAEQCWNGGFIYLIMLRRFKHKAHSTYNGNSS

[15] = target: T13, USH1C_1, Q9Y6N9
T13 sequence (Q9Y6N9 82-179, limits assumed, looked up): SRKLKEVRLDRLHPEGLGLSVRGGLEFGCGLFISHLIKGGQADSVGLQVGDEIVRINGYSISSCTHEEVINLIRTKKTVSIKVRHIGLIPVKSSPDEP

[16] = target: T14, PDZD4, Q76G19
T14 sequence (Q76G19 125-224, limits assumed, looked up): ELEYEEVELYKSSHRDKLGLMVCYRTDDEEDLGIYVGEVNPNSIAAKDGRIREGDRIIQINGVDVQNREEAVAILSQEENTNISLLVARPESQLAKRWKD

[17] = target: LIMK1, P53667
Sequence of LIMK1, P53667 (P53667 155-268): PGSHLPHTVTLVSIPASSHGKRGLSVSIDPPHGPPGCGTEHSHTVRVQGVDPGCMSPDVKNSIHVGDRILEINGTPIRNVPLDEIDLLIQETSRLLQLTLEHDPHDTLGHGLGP

[18] = target: AHNAK2, Q8IVF2
Sequence of AHNAK2, Q8IVF2 (Q8IVF2 108-193): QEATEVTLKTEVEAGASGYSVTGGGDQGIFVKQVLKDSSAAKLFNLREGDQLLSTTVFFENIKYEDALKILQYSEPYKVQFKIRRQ

[19] = target: T15, MPDZ_7, O75970
T15 sequence (O75970 1146-1253, limits assumed, looked up): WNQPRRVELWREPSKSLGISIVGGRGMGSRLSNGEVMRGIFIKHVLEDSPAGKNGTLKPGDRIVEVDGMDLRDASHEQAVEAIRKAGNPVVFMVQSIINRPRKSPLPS

Sequence of MAGI3_5, Q5TCQ9 (Q5TCQ9 847-941): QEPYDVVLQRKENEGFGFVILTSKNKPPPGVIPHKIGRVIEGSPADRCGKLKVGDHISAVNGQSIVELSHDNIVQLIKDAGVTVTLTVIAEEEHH

B1: SARS-CoV-E, P59637 (peptide)
chain: NLNSSEGVPDLLV
pKd [1]: below the threshold
pKd [2]: below the threshold
pKd [3]: below the threshold
pKd [4]: below the threshold
pKd [5]: below the threshold
pKd [6]: below the threshold
pKd [7]: 4.26
pKd [8]: below the threshold
pKd [9]: below the threshold
pKd [10]: below the threshold
pKd [11]: below the threshold
pKd [12]: below the threshold
pKd [13]: below the threshold
pKd [14]: below the threshold
pKd [15]: below the threshold
pKd [16]: below the threshold
pKd [17]: below the threshold
pKd [18]: below the threshold
pKd [19]: below the threshold
